How the values were obtained:
Assay in all cases: holdup assay
Set-up in all cases: key: below the threshold = too weak to quantify, mostly under pKd 3.1 to 4
HTRA1, Q92743 = target: HTRA1, Q92743
LIN7C, Q9NUP9 = target: T1, LIN7C, Q9NUP9
T1 sequence (Q9NUP9 88-185, limits assumed, looked up): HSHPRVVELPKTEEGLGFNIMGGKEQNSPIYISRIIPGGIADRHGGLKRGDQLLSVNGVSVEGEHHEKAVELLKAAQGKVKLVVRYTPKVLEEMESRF

ARHGEF12, Q9NZN5-2 = target: ARHGEF12, Q9NZN5-2
Inadl_5, Q8NI35 = target: Inadl_5, Q8NI35
PDZRN3_1, Q9UPQ7 = target: T2, PDZRN3_1, Q9UPQ7
T2 sequence (Q9UPQ7 244-349, limits assumed, looked up): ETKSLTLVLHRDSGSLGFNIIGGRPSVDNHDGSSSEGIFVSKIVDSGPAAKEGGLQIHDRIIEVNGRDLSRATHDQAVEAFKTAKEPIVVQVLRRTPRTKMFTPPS

MPP6, Q9NZW5 = target: T3, MPP6, Q9NZW5
T3 sequence (Q9NZW5 125-219, limits assumed, looked up): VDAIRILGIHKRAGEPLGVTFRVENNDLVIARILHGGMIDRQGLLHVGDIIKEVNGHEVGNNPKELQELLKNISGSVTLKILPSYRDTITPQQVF

DLG1_3, Q12959 = target: DLG1_3, Q12959
LNX2_3, Q8N448 = target: T4, LNX2_3, Q8N448
T4 sequence (Q8N448 463-564, limits assumed, looked up): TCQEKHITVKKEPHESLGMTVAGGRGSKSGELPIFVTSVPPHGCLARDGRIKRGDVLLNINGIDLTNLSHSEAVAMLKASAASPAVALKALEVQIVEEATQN

LNX1_1, Q8TBB1 = target: LNX1_1, Q8TBB1
DLG4_2, P78352 = target: DLG4_2, P78352
GRIP2_7, Q9C0E4 = target: GRIP2_7, Q9C0E4
GRIP1_4, Q9Y3R0 = target: T5, GRIP1_4, Q9Y3R0
T5 sequence (Q9Y3R0 467-571, limits assumed, looked up): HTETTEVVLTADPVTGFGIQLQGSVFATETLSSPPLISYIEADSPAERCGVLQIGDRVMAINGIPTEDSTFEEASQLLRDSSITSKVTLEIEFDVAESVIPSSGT

TJP1_2, Q07157 = target: TJP1_2, Q07157
Inadl_9, Q8NI35 = target: Inadl_9, Q8NI35
APBA2_2, Q99767 = target: T6, APBA2_2, Q99767
T6 sequence (Q99767 654-744, limits assumed, looked up): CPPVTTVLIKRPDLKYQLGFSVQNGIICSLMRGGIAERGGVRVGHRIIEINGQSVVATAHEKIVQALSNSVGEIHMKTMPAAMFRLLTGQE

FRMPD2_3, Q68DX3 = target: FRMPD2_3, Q68DX3
GRIP2_5, Q9C0E4 = target: GRIP2_5, Q9C0E4
MAGI2_6, Q86UL8 = target: MAGI2_6, Q86UL8
TJP2_1, Q9UDY2 = target: TJP2_1, Q9UDY2
GRIP2_3, Q9C0E4 = target: GRIP2_3, Q9C0E4
SNTA1, Q13424 = target: T7, SNTA1, Q13424
T7 sequence (Q13424 82-180, limits assumed, looked up): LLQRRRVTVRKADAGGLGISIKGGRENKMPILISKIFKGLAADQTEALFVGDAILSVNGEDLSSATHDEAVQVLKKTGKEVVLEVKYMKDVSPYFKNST

GORASP1, Q9BQQ3 = target: GORASP1, Q9BQQ3
SNTB1, Q13884 = target: T8, SNTB1, Q13884
T8 sequence (Q13884 107-205, limits assumed, looked up): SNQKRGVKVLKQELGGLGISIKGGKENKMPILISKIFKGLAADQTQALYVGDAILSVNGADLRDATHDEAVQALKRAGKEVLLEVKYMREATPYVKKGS

LNX2_2, Q8N448 = target: T9, LNX2_2, Q8N448
T9 sequence (Q8N448 334-432, limits assumed, looked up): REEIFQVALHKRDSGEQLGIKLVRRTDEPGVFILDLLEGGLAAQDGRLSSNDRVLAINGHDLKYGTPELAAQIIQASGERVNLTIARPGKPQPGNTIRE

NHERF3_4, Q5T2W1 = target: T10, NHERF3_4, Q5T2W1
T10 sequence (Q5T2W1 373-468, limits assumed, looked up): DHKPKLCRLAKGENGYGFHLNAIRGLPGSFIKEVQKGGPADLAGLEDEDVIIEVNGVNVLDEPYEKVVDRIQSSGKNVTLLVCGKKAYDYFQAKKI

DLG5_1, Q8TDM6 = target: DLG5_1, Q8TDM6
GIPC2, Q8TF65 = target: GIPC2, Q8TF65
[1] = plain residues with an end cap or a label only (N-terminal biotin on a linker: ttds)
[2] = plain residues with an end cap or a label only (N-terminal biotin on a linker: ahx)

DLG5_1, Q8TDM6, sequence (Q8TDM6 617-713): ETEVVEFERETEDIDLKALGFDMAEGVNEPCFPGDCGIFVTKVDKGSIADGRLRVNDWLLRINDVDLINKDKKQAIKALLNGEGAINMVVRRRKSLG
DLG1_3, Q12959, sequence (Q12959 457-571): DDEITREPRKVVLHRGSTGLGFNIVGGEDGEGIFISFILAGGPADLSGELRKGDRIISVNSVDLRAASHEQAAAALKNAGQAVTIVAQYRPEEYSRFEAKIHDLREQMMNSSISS
GRIP2_7, Q9C0E4, sequence (Q9C0E4 934-1023): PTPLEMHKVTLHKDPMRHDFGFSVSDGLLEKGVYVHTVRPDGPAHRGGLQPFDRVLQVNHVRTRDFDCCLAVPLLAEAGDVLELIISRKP
GRIP2_3, Q9C0E4, sequence (Q9C0E4 238-339): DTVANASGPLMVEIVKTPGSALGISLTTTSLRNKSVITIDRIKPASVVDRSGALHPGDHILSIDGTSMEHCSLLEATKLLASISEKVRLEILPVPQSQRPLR
GIPC2, Q8TF65, sequence (Q8TF65 112-203): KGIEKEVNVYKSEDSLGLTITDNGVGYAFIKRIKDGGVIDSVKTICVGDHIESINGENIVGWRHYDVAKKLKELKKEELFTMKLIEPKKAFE
Inadl_9, Q8NI35, sequence (Q8NI35 1530-1615): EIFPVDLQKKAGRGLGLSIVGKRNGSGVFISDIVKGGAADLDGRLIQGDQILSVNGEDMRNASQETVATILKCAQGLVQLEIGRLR
DLG4_2, P78352, sequence (P78352 155-259): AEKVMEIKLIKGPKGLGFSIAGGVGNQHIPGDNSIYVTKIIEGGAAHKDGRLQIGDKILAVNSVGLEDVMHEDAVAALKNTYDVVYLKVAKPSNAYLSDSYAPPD
TJP1_2, Q07157, sequence (Q07157 181-274): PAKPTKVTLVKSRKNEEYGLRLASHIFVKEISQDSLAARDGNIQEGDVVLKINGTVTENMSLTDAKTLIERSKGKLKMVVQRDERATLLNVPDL
FRMPD2_3, Q68DX3, sequence (Q68DX3 1073-1166): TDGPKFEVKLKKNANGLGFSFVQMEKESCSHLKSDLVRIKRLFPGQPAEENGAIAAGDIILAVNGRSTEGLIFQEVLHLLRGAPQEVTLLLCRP
ARHGEF12, Q9NZN5-2, sequence (Q9NZN5 other isoform, or with tags, fused parts or gaps): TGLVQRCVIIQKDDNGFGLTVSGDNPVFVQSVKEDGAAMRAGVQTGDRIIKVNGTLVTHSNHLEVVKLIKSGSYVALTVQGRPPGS
LNX1_1, Q8TBB1, sequence (Q8TBB1 261-371): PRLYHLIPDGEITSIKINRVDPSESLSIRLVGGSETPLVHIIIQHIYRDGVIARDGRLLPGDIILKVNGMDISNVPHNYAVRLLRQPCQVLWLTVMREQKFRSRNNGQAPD
GORASP1, Q9BQQ3, sequence (Q9BQQ3 1-208): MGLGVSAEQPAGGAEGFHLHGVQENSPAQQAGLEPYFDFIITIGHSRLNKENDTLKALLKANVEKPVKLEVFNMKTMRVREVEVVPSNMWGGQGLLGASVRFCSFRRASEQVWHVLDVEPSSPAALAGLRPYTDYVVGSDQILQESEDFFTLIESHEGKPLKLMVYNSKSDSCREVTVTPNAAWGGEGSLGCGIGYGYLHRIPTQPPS
Inadl_5, Q8NI35, sequence (Q8NI35 673-780): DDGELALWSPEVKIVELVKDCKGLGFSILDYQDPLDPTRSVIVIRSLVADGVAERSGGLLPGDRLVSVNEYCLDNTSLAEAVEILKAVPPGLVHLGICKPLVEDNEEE
HTRA1, Q92743, sequence (Q92743 360-477): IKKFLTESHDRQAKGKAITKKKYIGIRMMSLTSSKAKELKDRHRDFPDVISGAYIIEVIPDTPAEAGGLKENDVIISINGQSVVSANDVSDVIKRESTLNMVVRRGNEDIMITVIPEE
MAGI2_6, Q86UL8, sequence (Q86UL8 1141-1229): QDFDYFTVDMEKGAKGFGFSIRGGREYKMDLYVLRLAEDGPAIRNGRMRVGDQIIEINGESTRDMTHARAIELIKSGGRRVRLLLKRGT
GRIP2_5, Q9C0E4, sequence (Q9C0E4 544-642): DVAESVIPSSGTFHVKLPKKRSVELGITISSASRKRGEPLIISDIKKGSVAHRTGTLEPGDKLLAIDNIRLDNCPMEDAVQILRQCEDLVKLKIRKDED
TJP2_1, Q9UDY2, sequence (Q9UDY2 24-128): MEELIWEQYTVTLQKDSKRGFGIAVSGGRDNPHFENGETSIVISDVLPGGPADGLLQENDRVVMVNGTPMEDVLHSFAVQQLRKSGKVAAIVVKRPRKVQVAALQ

B1: KCNT2, Q6UVM3 (peptide)
chain: GQDSREETQL
pKd (HTRA1, Q92743; [1]): below the threshold | pKd (LIN7C, Q9NUP9; [1]): below the threshold | pKd (ARHGEF12, Q9NZN5-2; [1]): 4.67 | pKd (Inadl_5, Q8NI35; [1]): below the threshold | pKd (PDZRN3_1, Q9UPQ7; [1]): 4.97 | pKd (MPP6, Q9NZW5; [1]): below the threshold | pKd (DLG1_3, Q12959; [1]): below the threshold | pKd (LNX2_3, Q8N448; [1]): below the threshold | pKd (LNX1_1, Q8TBB1; [1]): below the threshold | pKd (DLG4_2, P78352; [1]): 3.62 | pKd (GRIP2_7, Q9C0E4; [1]): below the threshold | pKd (GRIP1_4, Q9Y3R0; [1]): below the threshold | pKd (TJP1_2, Q07157; [1]): below the threshold | pKd (Inadl_9, Q8NI35; [1]): below the threshold | pKd (APBA2_2, Q99767; [1]): below the threshold | pKd (FRMPD2_3, Q68DX3; [1]): below the threshold | pKd (GRIP2_5, Q9C0E4; [1]): below the threshold | pKd (MAGI2_6, Q86UL8; [1]): below the threshold | pKd (TJP2_1, Q9UDY2; [1]): below the threshold | pKd (GRIP2_3, Q9C0E4; [1]): below the threshold | pKd (SNTA1, Q13424; [1]): 4.06 | pKd (GORASP1, Q9BQQ3; [1]): 3.75 | pKd (SNTB1, Q13884; [1]): 4.49 | pKd (LNX2_2, Q8N448; [1]): below the threshold | pKd (NHERF3_4, Q5T2W1; [1]): below the threshold | pKd (DLG5_1, Q8TDM6; [1]): below the threshold | pKd (GIPC2, Q8TF65; [1]): 3.79

B2: TJP2, Q9UDY2 (peptide)
chain: QSARYRDTEL
pKd (HTRA1, Q92743; [1]): below the threshold | pKd (LIN7C, Q9NUP9; [1]): below the threshold | pKd (ARHGEF12, Q9NZN5-2; [1]): 4.27 | pKd (Inadl_5, Q8NI35; [1]): below the threshold | pKd (PDZRN3_1, Q9UPQ7; [1]): 4.67 | pKd (MPP6, Q9NZW5; [1]): below the threshold | pKd (DLG1_3, Q12959; [1]): 3.83 | pKd (LNX2_3, Q8N448; [1]): 3.53 | pKd (LNX1_1, Q8TBB1; [1]): 3.58 | pKd (DLG4_2, P78352; [1]): 3.83 | pKd (GRIP2_7, Q9C0E4; [1]): 3.49 | pKd (GRIP1_4, Q9Y3R0; [1]): below the threshold | pKd (TJP1_2, Q07157; [1]): below the threshold | pKd (Inadl_9, Q8NI35; [1]): below the threshold | pKd (APBA2_2, Q99767; [1]): below the threshold | pKd (FRMPD2_3, Q68DX3; [1]): below the threshold | pKd (GRIP2_5, Q9C0E4; [1]): below the threshold | pKd (MAGI2_6, Q86UL8; [1]): 4.36 | pKd (TJP2_1, Q9UDY2; [1]): below the threshold | pKd (GRIP2_3, Q9C0E4; [1]): below the threshold | pKd (SNTA1, Q13424; [1]): 4.38 | pKd (GORASP1, Q9BQQ3; [1]): below the threshold | pKd (SNTB1, Q13884; [1]): 3.86 | pKd (LNX2_2, Q8N448; [1]): below the threshold | pKd (NHERF3_4, Q5T2W1; [1]): 3.81 | pKd (DLG5_1, Q8TDM6; [1]): below the threshold | pKd (GIPC2, Q8TF65; [1]): below the threshold

B3: ARHGAP17, Q68EM7 (peptide)
chain: IDNDTESTAL
pKd (HTRA1, Q92743; [1]): 3.65 | pKd (LIN7C, Q9NUP9; [1]): below the threshold | pKd (ARHGEF12, Q9NZN5-2; [1]): 4.77 | pKd (Inadl_5, Q8NI35; [1]): below the threshold | pKd (PDZRN3_1, Q9UPQ7; [1]): 4.44 | pKd (MPP6, Q9NZW5; [1]): below the threshold | pKd (DLG1_3, Q12959; [1]): below the threshold | pKd (LNX2_3, Q8N448; [1]): below the threshold | pKd (LNX1_1, Q8TBB1; [1]): below the threshold | pKd (DLG4_2, P78352; [1]): below the threshold | pKd (GRIP2_7, Q9C0E4; [1]): below the threshold | pKd (GRIP1_4, Q9Y3R0; [1]): below the threshold | pKd (TJP1_2, Q07157; [1]): below the threshold | pKd (Inadl_9, Q8NI35; [1]): below the threshold | pKd (APBA2_2, Q99767; [1]): below the threshold | pKd (FRMPD2_3, Q68DX3; [1]): below the threshold | pKd (GRIP2_5, Q9C0E4; [1]): below the threshold | pKd (MAGI2_6, Q86UL8; [1]): 3.79 | pKd (TJP2_1, Q9UDY2; [1]): below the threshold | pKd (GRIP2_3, Q9C0E4; [1]): below the threshold | pKd (SNTA1, Q13424; [1]): 3.73 | pKd (GORASP1, Q9BQQ3; [1]): below the threshold | pKd (SNTB1, Q13884; [1]): 4.13 | pKd (LNX2_2, Q8N448; [1]): below the threshold | pKd (NHERF3_4, Q5T2W1; [1]): 4.78 | pKd (DLG5_1, Q8TDM6; [1]): below the threshold | pKd (GIPC2, Q8TF65; [1]): below the threshold

B4: MYO18A, Q92614 (peptide)
chain: TEAKLTETNA
pKd (HTRA1, Q92743; [2]): below the threshold | pKd (LIN7C, Q9NUP9; [2]): below the threshold | pKd (ARHGEF12, Q9NZN5-2; [2]): below the threshold | pKd (Inadl_5, Q8NI35; [2]): below the threshold | pKd (PDZRN3_1, Q9UPQ7; [2]): below the threshold | pKd (MPP6, Q9NZW5; [2]): below the threshold | pKd (DLG1_3, Q12959; [2]): below the threshold | pKd (LNX2_3, Q8N448; [2]): below the threshold | pKd (LNX1_1, Q8TBB1; [2]): below the threshold | pKd (DLG4_2, P78352; [2]): below the threshold | pKd (GRIP2_7, Q9C0E4; [2]): below the threshold | pKd (GRIP1_4, Q9Y3R0; [2]): below the threshold | pKd (TJP1_2, Q07157; [2]): below the threshold | pKd (Inadl_9, Q8NI35; [2]): below the threshold | pKd (APBA2_2, Q99767; [2]): below the threshold | pKd (FRMPD2_3, Q68DX3; [2]): below the threshold | pKd (GRIP2_5, Q9C0E4; [2]): below the threshold | pKd (MAGI2_6, Q86UL8; [2]): below the threshold | pKd (TJP2_1, Q9UDY2; [2]): below the threshold | pKd (GRIP2_3, Q9C0E4; [2]): below the threshold | pKd (SNTA1, Q13424; [2]): below the threshold | pKd (GORASP1, Q9BQQ3; [2]): below the threshold | pKd (SNTB1, Q13884; [2]): below the threshold | pKd (LNX2_2, Q8N448; [2]): below the threshold | pKd (NHERF3_4, Q5T2W1; [2]): below the threshold | pKd (DLG5_1, Q8TDM6; [2]): below the threshold | pKd (GIPC2, Q8TF65; [2]): below the threshold
